Here are results for one substance from PMC9145999.

The target in the test is main protease from canine coronavirus (CCoV M^pro) (canine coronavirus). Description: crystal structure; CCoV M^pro incubated with two-fold molar excess of GC376 at 4 °C for 1 h; crystals from 0.2 M sodium citrate, 0.1 M Bis Tris propane 7.0, 25% w/v PEG 3350 at 20 °C; 2.75 Å, space group C2, eight protomers in the asymmetric unit.

In turn, “main protease from canine coronavirus (CCoV M^pro) (enzyme)” returned a stoichiometry N of 2.
